Data reported in patent US8840891 (RSR, dated 2014).
Where two headings read alike, the source gives them in different places. Values belong to the molecule of their own block, whether it stands above or below them.

How the values were obtained:
[1] = molecular target: TSHR with Asp151 mutated to Arginine (human) (UniProt P16473); test: cell-based or functional assay
[2] = molecular target: wild type human TSHR (human) (UniProt P16473); test: cell-based or functional assay
[3] = molecular target: TSHR with Asp160 mutated to Lysine (human) (UniProt P16473); test: cell-based or functional assay
[4] = molecular target: wild type human TSHR (human) (UniProt P16473); test: cell-based or functional assay; remark: listed apart in the source
[5] = molecular target: TSHR with Lys183 mutated to Aspartic acid (human) (UniProt P16473); test: cell-based or functional assay
[6] = molecular target: wild type human TSHR (human) (UniProt P16473); test: cell-based or functional assay; remark: listed apart in the source
[7] = molecular target: TSHR coated onto tubes (TSHR coated tubes) (human) (UniProt P16473); test: TSHR coated tubes
[8] = molecular target: TSHR with Glu178 mutated to Alanine expressed on CHO cells (human) (UniProt P16473); test: cell-based or functional assay
[9] = molecular target: wild type human TSHR (thyrotropin receptor) expressed on CHO cells (human) (UniProt P16473); test: cell-based or functional assay
[10] = molecular target: TSHR with Tyr206 mutated to Alanine expressed on CHO cells (human) (UniProt P16473); test: cell-based or functional assay
[11] = molecular target: wild type human TSHR (thyrotropin receptor) expressed on CHO cells (human) (UniProt P16473); test: cell-based or functional assay; remark: listed apart in the source
[12] = molecular target: TSHR with Asp232 mutated to Alanine expressed on CHO cells (human) (UniProt P16473); test: cell-based or functional assay
[13] = molecular target: wild type human TSHR (thyrotropin receptor) expressed on CHO cells (human) (UniProt P16473); test: cell-based or functional assay; remark: listed apart in the source
[14] = molecular target: TSHR with Glu251 mutated to Alanine expressed on CHO cells (human) (UniProt P16473); test: cell-based or functional assay
[15] = molecular target: wild type human TSHR (thyrotropin receptor) expressed on CHO cells (human) (UniProt P16473); test: cell-based or functional assay; remark: listed apart in the source
[16] = molecular target: TSHR coated onto tubes (TSHR coated tubes) (human) (UniProt P16473); test: TSHR coated tubes, in the presence of HBD pool (Table 5)
[17] = molecular target: TSHR coated onto tubes (TSHR coated tubes) (human) (UniProt P16473); test: TSHR coated tubes, in the presence of HBD pool (Tables 4a, 4b)

Molecule: 5C9 IgG (antibody)
Mutated/wild type (%); 5C9 0.01 µg/mL + TSH [1]: 148%
Mutated/wild type (%); 5C9 0.1 µg/mL + TSH [1]: 158%
Mutated/wild type (%); 5C9 1.0 µg/mL + TSH [1]: 94%
Mutated/wild type (%); 5C9 10 µg/mL + TSH [1]: 132%
Mutated/wild type (%); 5C9 100 µg/mL + TSH [1]: 148%
Mutated/wild type (%); 5C9 100 µg/mL only [1]: 157%
cyclic AMP; 5C9 0.01 µg/mL + TSH (fmol/cell well) [1]: 18300
cyclic AMP; 5C9 0.1 µg/mL + TSH (fmol/cell well) [1]: 10600
cyclic AMP; 5C9 1.0 µg/mL + TSH (fmol/cell well) [1]: 2590
cyclic AMP; 5C9 10 µg/mL + TSH (fmol/cell well) [1]: 1610
cyclic AMP; 5C9 100 µg/mL + TSH (fmol/cell well) [1]: 2330
cyclic AMP; 5C9 100 µg/mL only (fmol/cell well) [1]: 409
cyclic AMP; 5C9 0.01 µg/mL + TSH (fmol/cell well) [2]: 12400
cyclic AMP; 5C9 0.1 µg/mL + TSH (fmol/cell well) [2]: 6690
cyclic AMP; 5C9 1.0 µg/mL + TSH (fmol/cell well) [2]: 2750
cyclic AMP; 5C9 10 µg/mL + TSH (fmol/cell well) [2]: 1220
cyclic AMP; 5C9 100 µg/mL + TSH (fmol/cell well) [2]: 1570
cyclic AMP; 5C9 100 µg/mL only (fmol/cell well) [2]: 260
Mutated/wild type (%); 5C9 0.01 µg/mL + M22 [3]: 91%
Mutated/wild type (%); 5C9 0.1 µg/mL + M22 [3]: 82%
Mutated/wild type (%); 5C9 1.0 µg/mL + M22 [3]: 117%
Mutated/wild type (%); 5C9 10 µg/mL + M22 [3]: 309%
Mutated/wild type (%); 5C9 100 µg/mL + M22 [3]: 218%
Mutated/wild type (%); 5C9 100 µg/mL only [3]: 107%
cyclic AMP; 5C9 0.01 µg/mL + M22 (fmol/cell well) [3]: 15200
cyclic AMP; 5C9 0.1 µg/mL + M22 (fmol/cell well) [3]: 7700
cyclic AMP; 5C9 1.0 µg/mL + M22 (fmol/cell well) [3]: 963
cyclic AMP; 5C9 10 µg/mL + M22 (fmol/cell well) [3]: 642
cyclic AMP; 5C9 100 µg/mL + M22 (fmol/cell well) [3]: 657
cyclic AMP; 5C9 100 µg/mL only (fmol/cell well) [3]: 458
cyclic AMP; 5C9 0.01 µg/mL + M22 (fmol/cell well) [4]: 16700
cyclic AMP; 5C9 0.1 µg/mL + M22 (fmol/cell well) [4]: 9380
cyclic AMP; 5C9 1.0 µg/mL + M22 (fmol/cell well) [4]: 821
cyclic AMP; 5C9 10 µg/mL + M22 (fmol/cell well) [4]: 208
cyclic AMP; 5C9 100 µg/mL + M22 (fmol/cell well) [4]: 301
cyclic AMP; 5C9 100 µg/mL only (fmol/cell well) [4]: 429
Mutated/wild type (%); 5C9 0.01 µg/mL + TSH [5]: 160%
Mutated/wild type (%); 5C9 0.1 µg/mL + TSH [5]: 202%
Mutated/wild type (%); 5C9 1.0 µg/mL + TSH [5]: 370%
Mutated/wild type (%); 5C9 10 µg/mL + TSH [5]: 591%
Mutated/wild type (%); 5C9 100 µg/mL + TSH [5]: 524%
cyclic AMP; 5C9 0.01 µg/mL + TSH (fmol/cell well) [5]: 20600
cyclic AMP; 5C9 0.1 µg/mL + TSH (fmol/cell well) [5]: 17300
cyclic AMP; 5C9 1.0 µg/mL + TSH (fmol/cell well) [5]: 12700
cyclic AMP; 5C9 10 µg/mL + TSH (fmol/cell well) [5]: 6590
cyclic AMP; 5C9 100 µg/mL + TSH (fmol/cell well) [5]: 9010
cyclic AMP; 5C9 100 µg/mL only (fmol/cell well) [5]: 54
cyclic AMP; 5C9 0.01 µg/mL + TSH (fmol/cell well) [6]: 12900
cyclic AMP; 5C9 0.1 µg/mL + TSH (fmol/cell well) [6]: 8580
cyclic AMP; 5C9 1.0 µg/mL + TSH (fmol/cell well) [6]: 3420
cyclic AMP; 5C9 10 µg/mL + TSH (fmol/cell well) [6]: 1110
cyclic AMP; 5C9 100 µg/mL + TSH (fmol/cell well) [6]: 1720
cyclic AMP; 5C9 100 µg/mL only (fmol/cell well) [6]: < 12.5

average % binding of labelled tracer [7]: 20%
Cyclic AMP produced; 5C9 0.01 µg/mL + TSH (fmol/cell well) [8]: 8170
Cyclic AMP produced; 5C9 0.1 µg/mL + TSH (fmol/cell well) [8]: 7310
Cyclic AMP produced; 5C9 1.0 µg/mL + TSH (fmol/cell well) [8]: 3570
Cyclic AMP produced; 5C9 10 µg/mL + TSH (fmol/cell well) [8]: 1900
Cyclic AMP produced; 5C9 100 µg/mL + TSH (fmol/cell well) [8]: 894
Cyclic AMP produced; 5C9 100 µg/mL only (fmol/cell well) [8]: 134
Mutated/wild type (%); 5C9 0.01 µg/mL + TSH [8]: 65%
Mutated/wild type (%); 5C9 0.1 µg/mL + TSH [8]: 168%
Mutated/wild type (%); 5C9 1.0 µg/mL + TSH [8]: 519%
Mutated/wild type (%); 5C9 10 µg/mL + TSH [8]: 302%
Mutated/wild type (%); 5C9 100 µg/mL + TSH [8]: 126%
Mutated/wild type (%); 5C9 100 µg/mL only [8]: 68%
Cyclic AMP produced; 5C9 0.01 µg/mL + TSH (fmol/cell well) [9]: 12600
Cyclic AMP produced; 5C9 0.1 µg/mL + TSH (fmol/cell well) [9]: 4350
Cyclic AMP produced; 5C9 1.0 µg/mL + TSH (fmol/cell well) [9]: 688
Cyclic AMP produced; 5C9 10 µg/mL + TSH (fmol/cell well) [9]: 630
Cyclic AMP produced; 5C9 100 µg/mL + TSH (fmol/cell well) [9]: 712
Cyclic AMP produced; 5C9 100 µg/mL only (fmol/cell well) [9]: 196
Cyclic AMP produced; 5C9 0.01 µg/mL + TSH (fmol/cell well) [10]: 18400
Cyclic AMP produced; 5C9 0.1 µg/mL + TSH (fmol/cell well) [10]: 10800
Cyclic AMP produced; 5C9 1.0 µg/mL + TSH (fmol/cell well) [10]: 3460
Cyclic AMP produced; 5C9 10 µg/mL + TSH (fmol/cell well) [10]: 1560
Cyclic AMP produced; 5C9 100 µg/mL + TSH (fmol/cell well) [10]: 506
Cyclic AMP produced; 5C9 100 µg/mL only (fmol/cell well) [10]: 482
Mutated/wild type (%); 5C9 0.01 µg/mL + TSH [10]: 114%
Mutated/wild type (%); 5C9 0.1 µg/mL + TSH [10]: 174%
Mutated/wild type (%); 5C9 1.0 µg/mL + TSH [10]: 265%
Mutated/wild type (%); 5C9 10 µg/mL + TSH [10]: 395%
Mutated/wild type (%); 5C9 100 µg/mL + TSH [10]: 173%
Mutated/wild type (%); 5C9 100 µg/mL only [10]: 109%
Cyclic AMP produced; 5C9 0.01 µg/mL + TSH (fmol/cell well) [11]: 16100
Cyclic AMP produced; 5C9 0.1 µg/mL + TSH (fmol/cell well) [11]: 6220
Cyclic AMP produced; 5C9 1.0 µg/mL + TSH (fmol/cell well) [11]: 1310
Cyclic AMP produced; 5C9 10 µg/mL + TSH (fmol/cell well) [11]: 396
Cyclic AMP produced; 5C9 100 µg/mL + TSH (fmol/cell well) [11]: 292
Cyclic AMP produced; 5C9 100 µg/mL only (fmol/cell well) [11]: 444
Cyclic AMP produced; 5C9 0.01 µg/mL + TSH (fmol/cell well) [12]: 15300
Cyclic AMP produced; 5C9 0.1 µg/mL + TSH (fmol/cell well) [12]: 6560
Cyclic AMP produced; 5C9 1.0 µg/mL + TSH (fmol/cell well) [12]: 1880
Cyclic AMP produced; 5C9 10 µg/mL + TSH (fmol/cell well) [12]: 710
Cyclic AMP produced; 5C9 100 µg/mL + TSH (fmol/cell well) [12]: 55
Cyclic AMP produced; 5C9 100 µg/mL only (fmol/cell well) [12]: 99
Mutated/wild type (%); 5C9 0.01 µg/mL + TSH [12]: 87%
Mutated/wild type (%); 5C9 0.1 µg/mL + TSH [12]: 89%
Mutated/wild type (%); 5C9 1.0 µg/mL + TSH [12]: 176%
Mutated/wild type (%); 5C9 10 µg/mL + TSH [12]: 89%
Mutated/wild type (%); 5C9 100 µg/mL + TSH [12]: 33%
Mutated/wild type (%); 5C9 100 µg/mL only [12]: 19%
Cyclic AMP produced; 5C9 0.01 µg/mL + TSH (fmol/cell well) [13]: 17600
Cyclic AMP produced; 5C9 0.1 µg/mL + TSH (fmol/cell well) [13]: 7330
Cyclic AMP produced; 5C9 1.0 µg/mL + TSH (fmol/cell well) [13]: 1070
Cyclic AMP produced; 5C9 10 µg/mL + TSH (fmol/cell well) [13]: 794
Cyclic AMP produced; 5C9 100 µg/mL + TSH (fmol/cell well) [13]: 166
Cyclic AMP produced; 5C9 100 µg/mL only (fmol/cell well) [13]: 522
Cyclic AMP produced; 5C9 0.01 µg/mL + TSH (fmol/cell well) [14]: 22000
Cyclic AMP produced; 5C9 0.1 µg/mL + TSH (fmol/cell well) [14]: 15500
Cyclic AMP produced; 5C9 1.0 µg/mL + TSH (fmol/cell well) [14]: 5240
Cyclic AMP produced; 5C9 10 µg/mL + TSH (fmol/cell well) [14]: 1880
Cyclic AMP produced; 5C9 100 µg/mL + TSH (fmol/cell well) [14]: 1170
Cyclic AMP produced; 5C9 100 µg/mL only (fmol/cell well) [14]: 406
Mutated/wild type (%); 5C9 0.01 µg/mL + TSH [14]: 104%
Mutated/wild type (%); 5C9 0.1 µg/mL + TSH [14]: 180%
Mutated/wild type (%); 5C9 1.0 µg/mL + TSH [14]: 573%
Mutated/wild type (%); 5C9 10 µg/mL + TSH [14]: 250%
Mutated/wild type (%); 5C9 100 µg/mL + TSH [14]: 236%
Mutated/wild type (%); 5C9 100 µg/mL only [14]: 88%
Cyclic AMP produced; 5C9 0.01 µg/mL + TSH (fmol/cell well) [15]: 21200
Cyclic AMP produced; 5C9 0.1 µg/mL + TSH (fmol/cell well) [15]: 8640
Cyclic AMP produced; 5C9 1.0 µg/mL + TSH (fmol/cell well) [15]: 915
Cyclic AMP produced; 5C9 10 µg/mL + TSH (fmol/cell well) [15]: 752
Cyclic AMP produced; 5C9 100 µg/mL + TSH (fmol/cell well) [15]: 496
Cyclic AMP produced; 5C9 100 µg/mL only (fmol/cell well) [15]: 460
% of labelled protein bound [16]: 13%
% of labelled protein bound [17]: 17%
B1: 5C9 IgG (human monoclonal autoantibody to the TSHR) (antibody, from another filing, V domains shown)
VH: EVQLVESGGGLIQPGGSLRLSCAASGFTVSSNYMSWVRQAPGKGLEWVSVTYSGGSTSYADSVKGRFTISRDNSKNTLYLQMNSLRAEDTAVYYCARGGRYCSSISCYARSGCDYWGQGTLVTVSS
VL: AIQMTQSPSSLSASVGDRVTITCRASQSISNYLNWYQQKPGKAPKLLIYAASSLQSGVPSRFSGSGSGTDFTLTISSLQPEDFATYYCQQSYSSPSTTFGQGTKLEIK
